In assay [1] the target is T1, hDOP–Renilla luciferase (human), P41143.
T1 chain: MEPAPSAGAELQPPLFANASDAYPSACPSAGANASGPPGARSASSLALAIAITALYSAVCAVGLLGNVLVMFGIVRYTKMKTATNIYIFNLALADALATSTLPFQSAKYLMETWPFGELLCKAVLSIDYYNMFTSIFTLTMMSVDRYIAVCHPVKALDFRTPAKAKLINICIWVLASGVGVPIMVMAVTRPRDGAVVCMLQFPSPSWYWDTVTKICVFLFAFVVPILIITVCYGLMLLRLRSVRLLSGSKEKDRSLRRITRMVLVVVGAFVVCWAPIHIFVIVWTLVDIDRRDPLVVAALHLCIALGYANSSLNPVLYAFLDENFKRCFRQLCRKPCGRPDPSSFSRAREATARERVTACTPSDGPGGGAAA
The assay is described as follows: FRET or BRET. As to conditions: remark: other sources report otherwise. Background: Bioluminescence resonance energy transfer reports proximity on the nanometre scale.

Assay [2] concerns the target T2, hCXCR2–Renilla luciferase (human), P25025.
T2 chain: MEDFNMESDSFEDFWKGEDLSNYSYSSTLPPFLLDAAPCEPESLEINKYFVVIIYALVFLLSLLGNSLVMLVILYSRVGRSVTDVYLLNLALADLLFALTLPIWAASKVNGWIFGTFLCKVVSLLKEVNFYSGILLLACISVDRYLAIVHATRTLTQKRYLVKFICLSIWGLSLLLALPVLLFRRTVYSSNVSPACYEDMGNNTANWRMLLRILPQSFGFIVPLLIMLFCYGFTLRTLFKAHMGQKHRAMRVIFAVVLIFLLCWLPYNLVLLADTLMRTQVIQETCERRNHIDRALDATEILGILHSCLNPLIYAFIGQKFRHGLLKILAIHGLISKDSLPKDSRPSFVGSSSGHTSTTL
The assay is described as follows: FRET or BRET. The note with it: remark: other sources report otherwise.

B1: hDOP–GFP^2, P41143 1-372 (receptor)
chain: T1 chain
For B1, the BRET50 ([acceptor] to [donor] ratio) in assay [1] amounted to 2.2.

B2: hCXCR2–GFP^2, P25025 1-360 (receptor)
chain: T2 chain
Take B2: in assay [2], the BRET50 ([acceptor] to [donor] ratio) worked out at 1.6.

The record behind these values is article PMC2474558.
